PMC3610751
pKd: −log10 of the molar value.

What was measured:
[1] = system: NP isolated from virus (Influenza A virus (strain for filter assay not stated; A/PR/8/34 used for MS)); assay: filter binding; details: running buffer with 300 mM NaCl and 0.025% P20, 25 C, conditions not given
[2] = system: wt NP, recombinant (filter binding) (Influenza A virus (A/WSN/33, H1N1)); assay: filter binding; details: running buffer with 300 mM NaCl and 0.025% P20, 25 C, conditions not given
[3] = target: wild type nucleoprotein of influenza A virus H1N1 strain A/WSN/33 (influenza A virus H1N1 strain A/WSN/33); assay: crystal structure

Substance | pKd [1] | pKd [2] | stoichiometry N [3]
81 nt panhandle RNA | 7.52 | 7.52 | 
wild type nucleoprotein of influenza A virus H1N1 strain A/WSN/33 (natural protein) |  |  | 3
